Measurements: US20230044825A1 (CZ BIOHUB SF, published 2023)

Target: ATXN2 (UniProt Q99700 1-1313, limits assumed)
Test: fluorescence microscopy, co-localization in cells

Sequence of ATXN2 (Q99700 whole entry): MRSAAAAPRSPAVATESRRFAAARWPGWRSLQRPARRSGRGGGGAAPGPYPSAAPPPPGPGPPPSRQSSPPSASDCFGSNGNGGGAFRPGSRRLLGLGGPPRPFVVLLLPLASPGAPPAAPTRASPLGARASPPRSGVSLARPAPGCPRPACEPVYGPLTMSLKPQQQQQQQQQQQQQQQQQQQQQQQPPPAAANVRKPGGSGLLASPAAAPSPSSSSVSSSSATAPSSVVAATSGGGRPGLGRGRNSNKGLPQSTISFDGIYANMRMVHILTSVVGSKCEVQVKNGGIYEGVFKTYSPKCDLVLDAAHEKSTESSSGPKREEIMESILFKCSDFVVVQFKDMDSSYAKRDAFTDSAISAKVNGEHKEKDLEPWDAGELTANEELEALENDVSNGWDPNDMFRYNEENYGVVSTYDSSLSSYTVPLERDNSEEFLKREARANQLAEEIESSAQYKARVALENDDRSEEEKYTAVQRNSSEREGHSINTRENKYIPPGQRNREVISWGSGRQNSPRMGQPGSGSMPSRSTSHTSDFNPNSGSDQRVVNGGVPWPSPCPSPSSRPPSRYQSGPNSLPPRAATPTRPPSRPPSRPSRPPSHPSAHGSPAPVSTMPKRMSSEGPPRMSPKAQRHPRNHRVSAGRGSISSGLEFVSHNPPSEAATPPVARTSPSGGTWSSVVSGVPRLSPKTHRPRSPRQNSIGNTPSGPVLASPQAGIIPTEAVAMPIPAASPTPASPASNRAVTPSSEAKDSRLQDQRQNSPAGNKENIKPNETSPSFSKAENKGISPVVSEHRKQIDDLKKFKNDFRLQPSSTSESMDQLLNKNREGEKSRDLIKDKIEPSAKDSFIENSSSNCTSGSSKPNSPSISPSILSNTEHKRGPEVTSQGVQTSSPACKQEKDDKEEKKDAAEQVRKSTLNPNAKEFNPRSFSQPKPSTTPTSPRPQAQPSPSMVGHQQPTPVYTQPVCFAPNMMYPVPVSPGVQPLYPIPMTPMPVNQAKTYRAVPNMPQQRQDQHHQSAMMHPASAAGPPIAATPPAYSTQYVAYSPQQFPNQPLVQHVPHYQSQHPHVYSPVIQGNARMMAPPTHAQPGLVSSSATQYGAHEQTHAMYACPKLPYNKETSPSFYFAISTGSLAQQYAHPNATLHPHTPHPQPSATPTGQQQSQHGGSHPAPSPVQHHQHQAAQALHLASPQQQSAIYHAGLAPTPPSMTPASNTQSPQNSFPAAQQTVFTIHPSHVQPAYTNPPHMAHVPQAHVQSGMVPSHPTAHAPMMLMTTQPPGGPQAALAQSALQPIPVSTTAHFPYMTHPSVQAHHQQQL

B1: GFP-PopTag (other)
chain: GGGGSGGGGSGGGGSGGGGSEVAEQLVGVSAASAAASAFGSLSSALLMPKDGRTLEDVVRELLRPLLKEWLDQNLPRIVETKVEEEVQRISRGRGA
notes: also called GFP-PopTag condensates; not shown: GFP; constructs subcloned into pcDNA3.1+N-eGFP
binding result: no binding
